Assay results taken from US8367390B2, “Galactanase variants” (Novozymes A/S, priority 2002, dated 2013).
Read-outs that look alike come from different tables or passages of the source.

How the values were obtained:
[1] = Degradation of MeGal4, products by HPAE-PAD; format: biochemical; conditions: for Gal2 in reaction products / Gal3 in reaction products / Gal4 in reaction products / Gal in reaction products / MeGal2 in reaction products / MeGal3 in reaction products / MeGal4 in reaction products / MeGal in reaction products: MeGal4 0.25 mg/ml, pH 6.5, 37° C.
Experimental: (§1) The activity on the galacto-oligosaccharide substrates prepared as described above and on the commercially available galactobiose (Gal2, Megazyme) was studied for the four purified galactanases HIGAL, MTGAL, AAGAL and BLGAL. The buffers and temperatures used were: 25 mM sodium acetate, 0.5 mM CaCl2, 0.005% Triton X-100, pH 6.5 at 37° C. for HIGAL and MTGAL, 50 mM sodium acetate, 1 mM CaCl2, pH 4 at 30° C. for AAGAL and 50 mM Mes, 1 mM CaCl2, pH 6.5 at 30° C. for BLGAL. Enzyme concentrations used were 0.8 μg/ml for HIGAL, 0.2 microgram/ml for MTGAL, and 10 micrograms/ml for AAGAL and BLGAL. With HIGAL and MTGAL substrate concentrations were all 0.25 mg/ml, whereas 0.34 mg/ml Gal2, 0.050 mg/ml Gal3 and 0.067 mg/ml Gal4 were used for AAGAL and BLGAL. Enzyme activity in samples withdrawn after various incubation times was inactivated by heating to 95° C. for 10 min. Compositions of reaction products were analysed using HPAE-PAD (Dionex) applying a PA-100 column and a linear gradient of sodium acetate (0-0.18 M) in 0.15 M NaOH. Response factors of the individual carbohydrates were estimated from reference runs with MeGal3, MeGal4, Gal, Gal2, Gal3 and Gal4. Selected results are shown in Tables 2-8 below (the figures indicating weight percentage of glactooligosaccharides).

[2] = Degradation of MeGal3, products by HPAE-PAD; format: biochemical; conditions: for Gal2 in reaction products / Gal3 in reaction products / Gal in reaction products / MeGal2 in reaction products / MeGal3 in reaction products / MeGal in reaction products: MeGal3 0.25 mg/ml, pH 6.5, 37° C.
Experimental: as §1

[3] = Activity on galactobiose (Gal2); format: biochemical; conditions: in 24 hours; buffer, pH and temperature per enzyme
Experimental: as §1

[4] = Activity on galactotriose (Gal3); format: biochemical; conditions: up to 24 hours; buffer, pH and temperature per enzyme
Experimental: as §1

[5] = format: biochemical; conditions: for Gal2 in reaction products / Gal3 in reaction products / Gal4 in reaction products / Gal in reaction products: Gal4 0.25 mg/ml, pH 6.5, 37° C.
Experimental: as §1

B1: HIGAL: GH Family 53 galactanase from Humicola insolens, SEQ ID NO: 2 (wild type parent) (protein, listed as Humicola insolens)
chain: ALQYKGVDWSSVMVEERAGVRYKNVNGQEKPLEYILAENGVNMVRQRVWVNPWDGNYNLDYNIQLARRAKAAGLGLYINFHYSDTWADPAHQTTPAGWPSDINNLAWKLYNYTLDSMNRFADAGIQVDIVSIGNEITQGLLWPLGKTNNWYNIARLLHSAAWGVKDSRLNPKPKIMVHLDNGWNWDTQNWWYTNVLSQGPFEMSDFDMMGVSFYPFYSASATLDSLRRSLNNMVSRWGKEVAVVETNWPTSCPYPRYQFPADVRNVPFSAAGQTQYIQSVANVVSSVSKGVGLFYWEPAWIHNANLGSSCADNTMFTPSGQALSSLSVFHRI
modifications: mat_peptide (1)..()
Gal2 in reaction products ([1]; incubation time 0.0 hours): 0.0 weight percentage
Gal3 in reaction products ([1]; incubation time 0.0 hours): 0.0 weight percentage
Gal4 in reaction products ([1]; incubation time 0.0 hours): 0.0 weight percentage
Gal in reaction products ([1]; incubation time 0.0 hours): 0.0 weight percentage
MeGal2 in reaction products ([1]; incubation time 0.0 hours): 4.7 weight percentage
MeGal3 in reaction products ([1]; incubation time 0.0 hours): 14.8 weight percentage
MeGal4 in reaction products ([1]; incubation time 0.0 hours): 79.0 weight percentage
MeGal in reaction products ([1]; incubation time 0.0 hours): 1.6 weight percentage
Gal2 in reaction products ([1]; incubation time 0.5 hours): 6.3 weight percentage
Gal3 in reaction products ([1]; incubation time 0.5 hours): 20.6 weight percentage
Gal4 in reaction products ([1]; incubation time 0.5 hours): 3.3 weight percentage
Gal in reaction products ([1]; incubation time 0.5 hours): 2.3 weight percentage
MeGal2 in reaction products ([1]; incubation time 0.5 hours): 12.6 weight percentage
MeGal3 in reaction products ([1]; incubation time 0.5 hours): 17.2 weight percentage
MeGal4 in reaction products ([1]; incubation time 0.5 hours): 25.5 weight percentage
MeGal in reaction products ([1]; incubation time 0.5 hours): 12.1 weight percentage
Gal2 in reaction products ([1]; incubation time 2.0 hours): 5.0 weight percentage
Gal3 in reaction products ([1]; incubation time 2.0 hours): 16.0 weight percentage
Gal4 in reaction products ([1]; incubation time 2.0 hours): 3.2 weight percentage
Gal in reaction products ([1]; incubation time 2.0 hours): 1.6 weight percentage
MeGal2 in reaction products ([1]; incubation time 2.0 hours): 13.2 weight percentage
MeGal3 in reaction products ([1]; incubation time 2.0 hours): 18.4 weight percentage
MeGal4 in reaction products ([1]; incubation time 2.0 hours): 32.1 weight percentage
MeGal in reaction products ([1]; incubation time 2.0 hours): 10.5 weight percentage
Gal2 in reaction products ([1]; incubation time 5.0 hours): 13.8 weight percentage
Gal3 in reaction products ([1]; incubation time 5.0 hours): 19.7 weight percentage
Gal4 in reaction products ([1]; incubation time 5.0 hours): 3.2 weight percentage
Gal in reaction products ([1]; incubation time 5.0 hours): 7.4 weight percentage
MeGal2 in reaction products ([1]; incubation time 5.0 hours): 16.1 weight percentage
MeGal3 in reaction products ([1]; incubation time 5.0 hours): 15.5 weight percentage
MeGal4 in reaction products ([1]; incubation time 5.0 hours): 7.6 weight percentage
MeGal in reaction products ([1]; incubation time 5.0 hours): 16.6 weight percentage
Gal2 in reaction products ([1]; incubation time 24.0 hours): 25.3 weight percentage
Gal3 in reaction products ([1]; incubation time 24.0 hours): 9.1 weight percentage
Gal4 in reaction products ([1]; incubation time 24.0 hours): 1.7 weight percentage
Gal in reaction products ([1]; incubation time 24.0 hours): 26.4 weight percentage
MeGal2 in reaction products ([1]; incubation time 24.0 hours): 13.4 weight percentage
MeGal3 in reaction products ([1]; incubation time 24.0 hours): 5.0 weight percentage
MeGal4 in reaction products ([1]; incubation time 24.0 hours): 0.0 weight percentage
MeGal in reaction products ([1]; incubation time 24.0 hours): 19.1 weight percentage
Products from MeGal4 ([1]; in words, buffer, pH and temperature per enzyme): initial release mainly of MeGal, MeGal2 and Gal3 and some Gal2 but little Gal
Gal2 in reaction products ([2]; incubation time 0.0 hours): 0.0 weight percentage
Gal3 in reaction products ([2]; incubation time 0.0 hours): 0.0 weight percentage
Gal in reaction products ([2]; incubation time 0.0 hours): 0.0 weight percentage
MeGal2 in reaction products ([2]; incubation time 0.0 hours): 0.0 weight percentage
MeGal3 in reaction products ([2]; incubation time 0.0 hours): 100.0 weight percentage
MeGal in reaction products ([2]; incubation time 0.0 hours): 0.0 weight percentage
Gal2 in reaction products ([2]; incubation time 0.5 hours): 3.9 weight percentage
Gal3 in reaction products ([2]; incubation time 0.5 hours): 1.2 weight percentage
Gal in reaction products ([2]; incubation time 0.5 hours): 0.0 weight percentage
MeGal2 in reaction products ([2]; incubation time 0.5 hours): 3.3 weight percentage
MeGal3 in reaction products ([2]; incubation time 0.5 hours): 80.3 weight percentage
MeGal in reaction products ([2]; incubation time 0.5 hours): 11.4 weight percentage
Gal2 in reaction products ([2]; incubation time 2.2 hours): 12.5 weight percentage
Gal3 in reaction products ([2]; incubation time 2.2 hours): 3.3 weight percentage
Gal in reaction products ([2]; incubation time 2.2 hours): 2.3 weight percentage
MeGal2 in reaction products ([2]; incubation time 2.2 hours): 3.7 weight percentage
MeGal3 in reaction products ([2]; incubation time 2.2 hours): 59.7 weight percentage
MeGal in reaction products ([2]; incubation time 2.2 hours): 18.4 weight percentage
Gal2 in reaction products ([2]; incubation time 5.0 hours): 20.2 weight percentage
Gal3 in reaction products ([2]; incubation time 5.0 hours): 10.6 weight percentage
Gal in reaction products ([2]; incubation time 5.0 hours): 3.0 weight percentage
MeGal2 in reaction products ([2]; incubation time 5.0 hours): 5.2 weight percentage
MeGal3 in reaction products ([2]; incubation time 5.0 hours): 24.2 weight percentage
MeGal in reaction products ([2]; incubation time 5.0 hours): 36.8 weight percentage
Gal2 in reaction products ([2]; incubation time 72.0 hours): 36.2 weight percentage
Gal3 in reaction products ([2]; incubation time 72.0 hours): 8.0 weight percentage
Gal in reaction products ([2]; incubation time 72.0 hours): 17.1 weight percentage
MeGal2 in reaction products ([2]; incubation time 72.0 hours): 4.2 weight percentage
MeGal3 in reaction products ([2]; incubation time 72.0 hours): 0.0 weight percentage
MeGal in reaction products ([2]; incubation time 72.0 hours): 34.6 weight percentage
Release of MeGal versus MeGal2 from MeGal3 ([2]; in words): much higher release of MeGal than MeGal2
Activity on Gal2 [3]: Neither of the enzymes HIGAL, MTGAL, AAGAL or BLGAL had any detectable activity
Activity on Gal3, products [4]: degraded Gal3 to Gal2 and Gal
Products of Gal4 (galactotetraose) degradation [5]: mainly to Gal and Gal2, whereas Gal3 did not accumulate
Gal2 in reaction products ([5]; incubation time 0.0 hours): 0.0 weight percentage
Gal3 in reaction products ([5]; incubation time 0.0 hours): 42.0 weight percentage
Gal4 in reaction products ([5]; incubation time 0.0 hours): 58.0 weight percentage
Gal in reaction products ([5]; incubation time 0.0 hours): 0.0 weight percentage
Gal2 in reaction products ([5]; incubation time 0.5 hours): 8.1 weight percentage
Gal3 in reaction products ([5]; incubation time 0.5 hours): 43.2 weight percentage
Gal4 in reaction products ([5]; incubation time 0.5 hours): 42.9 weight percentage
Gal in reaction products ([5]; incubation time 0.5 hours): 5.8 weight percentage
Gal2 in reaction products ([5]; incubation time 2.2 hours): 21.9 weight percentage
Gal3 in reaction products ([5]; incubation time 2.2 hours): 39.8 weight percentage
Gal4 in reaction products ([5]; incubation time 2.2 hours): 21.6 weight percentage
Gal in reaction products ([5]; incubation time 2.2 hours): 16.7 weight percentage
Gal2 in reaction products ([5]; incubation time 5.0 hours): 34.8 weight percentage
Gal3 in reaction products ([5]; incubation time 5.0 hours): 23.9 weight percentage
Gal4 in reaction products ([5]; incubation time 5.0 hours): 5.7 weight percentage
Gal in reaction products ([5]; incubation time 5.0 hours): 35.6 weight percentage
Gal2 in reaction products ([5]; incubation time 72.0 hours): 33.6 weight percentage
Gal3 in reaction products ([5]; incubation time 72.0 hours): 0.9 weight percentage
Gal4 in reaction products ([5]; incubation time 72.0 hours): 0.2 weight percentage
Gal in reaction products ([5]; incubation time 72.0 hours): 65.2 weight percentage
